Here are results for 13 molecules from article PMC3823766, “Paralogs hnRNP L and hnRNP LL Exhibit Overlapping but Distinct RNA Binding Constraints”.

Holding throughout (assay): EMSA; EMSA: ~1 fmol 32P RNA (0.1 nM), 4.5% native PAGE; binding buffer as in cited ref 9, not given; BC50 values printed only in figures
A general note: In EMSA bound probe runs differently from free probe, usually more slowly.

Data set [1] concerns the target T1, FLAG-hnRNP LL (UniProt Q8WVV9 1-542).
T1 sequence: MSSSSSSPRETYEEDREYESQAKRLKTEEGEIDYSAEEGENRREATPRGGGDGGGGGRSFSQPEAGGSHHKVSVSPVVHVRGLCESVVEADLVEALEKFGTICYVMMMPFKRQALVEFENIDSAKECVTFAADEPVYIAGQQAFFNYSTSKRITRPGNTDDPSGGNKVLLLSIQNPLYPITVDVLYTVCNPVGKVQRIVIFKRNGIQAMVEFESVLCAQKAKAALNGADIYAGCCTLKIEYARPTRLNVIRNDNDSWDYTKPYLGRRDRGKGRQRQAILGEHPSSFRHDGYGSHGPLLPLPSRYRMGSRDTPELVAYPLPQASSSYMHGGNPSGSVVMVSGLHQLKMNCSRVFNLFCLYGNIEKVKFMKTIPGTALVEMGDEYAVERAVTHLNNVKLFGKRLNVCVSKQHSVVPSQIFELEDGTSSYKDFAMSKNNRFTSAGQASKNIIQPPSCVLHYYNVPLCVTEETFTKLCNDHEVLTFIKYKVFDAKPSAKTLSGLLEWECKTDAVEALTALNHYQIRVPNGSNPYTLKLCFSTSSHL
To be noted: protein: recombinant; tags: N-terminal FLAG; label: 32P-CTP body label.

In data set [2] the target is T2, GST-hnRNP L (UniProt P14866 1-589).
T2 sequence: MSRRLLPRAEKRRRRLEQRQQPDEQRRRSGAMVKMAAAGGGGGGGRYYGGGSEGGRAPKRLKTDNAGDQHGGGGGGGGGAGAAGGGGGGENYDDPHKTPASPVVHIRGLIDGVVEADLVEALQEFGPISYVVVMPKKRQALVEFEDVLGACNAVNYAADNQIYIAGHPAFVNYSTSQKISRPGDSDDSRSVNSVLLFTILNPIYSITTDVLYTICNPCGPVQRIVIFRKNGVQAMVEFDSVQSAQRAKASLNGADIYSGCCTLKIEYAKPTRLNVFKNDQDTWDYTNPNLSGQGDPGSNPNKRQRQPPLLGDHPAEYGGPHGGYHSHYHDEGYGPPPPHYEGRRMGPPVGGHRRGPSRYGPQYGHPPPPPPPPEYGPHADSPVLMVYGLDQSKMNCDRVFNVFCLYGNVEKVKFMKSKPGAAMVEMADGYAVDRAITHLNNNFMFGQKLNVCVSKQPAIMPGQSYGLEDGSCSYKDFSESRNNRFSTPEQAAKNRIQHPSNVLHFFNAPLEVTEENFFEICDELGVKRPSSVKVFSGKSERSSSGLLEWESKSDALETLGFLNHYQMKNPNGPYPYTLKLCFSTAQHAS
To be noted: protein: recombinant; label: 32P-CTP body label.

For data set [3], the target named is T1, FLAG-hnRNP LL. To be noted: protein: recombinant; tags: N-terminal FLAG; label: 32P-CTP body label. The source holds these as a separate data set.
Data set [4] addresses T1, FLAG-hnRNP LL. The settings on record: protein: recombinant; tags: N-terminal FLAG; label: 32P-CTP body label. The source holds these as a separate data set.
In data set [5] the target is T2, GST-hnRNP L. The settings on record: protein: recombinant; label: 32P-CTP body label. The source holds these as a separate data set.
The target in data set [6] is T2, GST-hnRNP L. To be noted: protein: recombinant; label: 32P-CTP body label. The source holds these as a separate data set.
The target of data set [7] is T1, FLAG-hnRNP LL. The settings on record: protein: recombinant; tags: N-terminal FLAG; label: 32P-CTP body label. The source holds these as a separate data set.

B1: CACACA x4 (N=2 ca spacer) (ssRNA)
RNA: GAUCCUUCACACAUUAGAUCUUUCACACAUUAGAUCUUUCACACAUUAGAUCUUUCACACAUUAGAUCU
For the molecule B1, the binding result in data set [1] and in data set [2] was “binds” in each case.

B2: CAuaCA (N=2) (ssRNA)
RNA: GAUCCUACAUACAUAGAUCUUACAUACAUAGAUCUUACAUACAUAGAUCUUACAUACAUAGAUCU
For B2, the binding result in data set [1] and in data set [2] was “binds” in each case.

B3: CAcCA (N=1) (ssRNA)
RNA: GAUCCUCACCACCAUAGAUCUUCACCACCAUAGAUCUUCACCACCAUAGAUCUUCACCACCAUAGAUCU
For B3, in data set [3], the binding signal is > 4 fold weaker than CACACA (at least). In data set [2], the binding result was “binds”.

B4: CA spacer N=3 (ssRNA)
RNA: GAUCCUACAUUACAUAGAUCUUACAUUACAUAGAUCUUACAUUACAUAGAUCUUACAUUACAUAGAUCU
Consider B4, for which the binding result in data set [2] is reported as “binds”.

B5: CAccCA (ssRNA)
RNA: GAUCCCCCACCCAAGAUCUCCCACCCAAGAUCUCCCACCCAAGAUCUCCCACCCAAGAUCU
For B5, the binding signal in data set [4] worked out at 5 fold weaker than CACACA; in data set [5], 15 fold weaker than CACACA.

B6: ESS1 wild type (ssRNA)
RNA: CUUACCUACUCACACCACUGCAUUCUCACCCGCAAGCACC
For B6, the Kd in data set [1] and in data set [2] was about 2 nM each time.

B7: ESS1 CA5 mutant (CA to GA) (ssRNA)
RNA: CUUACCUACUCACACCACUGCAUUCUGACCCGCAAGCACC
Take B7: the binding result in data set [1] is reported as “binds”.

B8: ESS1 CA6 mutant (CA to GA) (ssRNA)
RNA: CUUACCUACUCACACCACUGCAUUCUCACCCGGAAGCACC
With B8, the binding signal was about 10 fold weaker than ESS1 in data set [6] and over 5 fold weaker than ESS1 in data set [7].

B9: ESS1 CA4 mutant (CA to GA) (ssRNA)
RNA: CUUACCUACUCACACCACUGGAUUCUCACCCGCAAGCACC
On to B9, for which the binding signal in data set [6] was about 2 fold weaker than ESS1. Besides, the binding result in data set [1] is listed as “binds”.

B10: ESS1 CA7 mutant (CA to TA) (ssRNA)
RNA: CUUACCUACUCACACCACUGCAUUCUCACCCGCAAGUACC
B10: in data set [7], the binding signal is over 5 fold weaker than ESS1. Besides, in data set [2], the binding result is “binds”.

B11: ESS1 CA1 mutant (CA to TA) (ssRNA)
RNA: CUUACCUACUUACACCACUGCAUUCUCACCCGCAAGCACC
Turning to B11, the binding result in data set [1] is recorded as “binds”.

B12: ESS1 CA3 mutant (CA to GA) (ssRNA)
RNA: CUUACCUACUCACACGACUGCAUUCUCACCCGCAAGCACC
With B12, in data set [6], the binding signal was about 4 fold weaker than ESS1. Also, the binding result in data set [1] was “binds”.

B13: ESS1 CA2 mutant (CA to GA) (ssRNA)
RNA: CUUACCUACUCAGACCACUGCAUUCUCACCCGCAAGCACC
Consider B13, for which the binding signal in data set [6] was about 2 fold weaker than ESS1. Further, the binding result in data set [1] is listed as “binds”.

One may read the Kd as the concentration at which binding is half-saturated.
